# Measured values: patent US20140057284A1, “PHOTOLUMINESCENT MOLECULAR COMPLEX AND METHOD FOR DETERMINING OF THE CONCENTRATION OF SAID MOLECULAR COMPLEX” (priority 2011, published 2014)
# Assays:
# [1] = test system: CK1; assay: PK selectivity profiling, residual kinase activity; assay type: biochemical; details: 1 μM ARC-669, ATP close to Km
# [2] = biological target: BRK (Homo sapiens, UniProt Q13882); assay: biochemical; details: read-out: Percentages of residual activities of the kinase reaction
# Protocol: (§1) Selectivity testing (Table 2) was performed on the commercial basis at the Division of Signal Transduction Therapy, University of Dundee. ATP concentrations that were used in testing were close to the Km value of the kinase.
# [3] = biological target: PAK6 (Homo sapiens, UniProt Q9NQU5); assay: biochemical; details: read-out: Percentages of residual activities of the kinase reaction
# Protocol: as §1
# [4] = biological target: MST4 (Homo sapiens, UniProt Q9P289); assay: biochemical; details: read-out: Percentages of residual activities of the kinase reaction
# Protocol: as §1
# [5] = biological target: RSK1 (Homo sapiens, UniProt Q15418); assay: biochemical; details: read-out: Percentages of residual activities of the kinase reaction
# Protocol: as §1
# [6] = biological target: MKK2 (Homo sapiens, UniProt P36507); assay: biochemical; details: read-out: Percentages of residual activities of the kinase reaction
# Protocol: as §1
# [7] = biological target: JNK2 (Homo sapiens, UniProt P45984); assay: biochemical; details: read-out: Percentages of residual activities of the kinase reaction
# Protocol: as §1
# [8] = biological target: p38g MAPK (Homo sapiens, UniProt P53778); assay: biochemical; details: read-out: Percentages of residual activities of the kinase reaction
# Protocol: as §1
# [9] = biological target: STK33 (Homo sapiens, UniProt Q9BYT3); assay: biochemical; details: read-out: Percentages of residual activities of the kinase reaction
# Protocol: as §1
# [10] = biological target: HIPK1 (Homo sapiens, UniProt Q86Z02); assay: biochemical; details: read-out: Percentages of residual activities of the kinase reaction
# Protocol: as §1
# [11] = biological target: BTK (Homo sapiens, UniProt Q06187); assay: biochemical; details: read-out: Percentages of residual activities of the kinase reaction
# Chain of BTK (Q06187 whole entry, species assumed): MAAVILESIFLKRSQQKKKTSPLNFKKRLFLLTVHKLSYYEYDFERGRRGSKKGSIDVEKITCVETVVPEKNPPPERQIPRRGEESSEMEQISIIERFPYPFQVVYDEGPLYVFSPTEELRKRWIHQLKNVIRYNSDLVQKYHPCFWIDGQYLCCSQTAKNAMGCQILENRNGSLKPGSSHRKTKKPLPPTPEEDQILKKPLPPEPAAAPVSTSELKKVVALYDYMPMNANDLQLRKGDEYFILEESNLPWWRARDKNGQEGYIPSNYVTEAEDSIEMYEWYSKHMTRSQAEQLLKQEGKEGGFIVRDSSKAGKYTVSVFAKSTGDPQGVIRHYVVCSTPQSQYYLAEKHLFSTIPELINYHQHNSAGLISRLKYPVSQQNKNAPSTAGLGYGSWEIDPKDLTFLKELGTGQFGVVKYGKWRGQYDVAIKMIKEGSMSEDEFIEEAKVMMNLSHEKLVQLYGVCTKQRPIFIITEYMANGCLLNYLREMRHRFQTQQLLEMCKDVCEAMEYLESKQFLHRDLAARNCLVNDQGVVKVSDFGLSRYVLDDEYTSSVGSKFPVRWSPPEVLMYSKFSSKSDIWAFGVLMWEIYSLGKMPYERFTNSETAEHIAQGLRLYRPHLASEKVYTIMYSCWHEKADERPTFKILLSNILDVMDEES
# Protocol: as §1
# [12] = biological target: TAK1 (Homo sapiens, UniProt O43318); assay: biochemical; details: read-out: Percentages of residual activities of the kinase reaction
# Protocol: as §1
# [13] = biological target: TAO1 (Homo sapiens, UniProt Q7L7X3); assay: biochemical; details: read-out: Percentages of residual activities of the kinase reaction
# Chain of TAO1 (Q7L7X3 whole entry): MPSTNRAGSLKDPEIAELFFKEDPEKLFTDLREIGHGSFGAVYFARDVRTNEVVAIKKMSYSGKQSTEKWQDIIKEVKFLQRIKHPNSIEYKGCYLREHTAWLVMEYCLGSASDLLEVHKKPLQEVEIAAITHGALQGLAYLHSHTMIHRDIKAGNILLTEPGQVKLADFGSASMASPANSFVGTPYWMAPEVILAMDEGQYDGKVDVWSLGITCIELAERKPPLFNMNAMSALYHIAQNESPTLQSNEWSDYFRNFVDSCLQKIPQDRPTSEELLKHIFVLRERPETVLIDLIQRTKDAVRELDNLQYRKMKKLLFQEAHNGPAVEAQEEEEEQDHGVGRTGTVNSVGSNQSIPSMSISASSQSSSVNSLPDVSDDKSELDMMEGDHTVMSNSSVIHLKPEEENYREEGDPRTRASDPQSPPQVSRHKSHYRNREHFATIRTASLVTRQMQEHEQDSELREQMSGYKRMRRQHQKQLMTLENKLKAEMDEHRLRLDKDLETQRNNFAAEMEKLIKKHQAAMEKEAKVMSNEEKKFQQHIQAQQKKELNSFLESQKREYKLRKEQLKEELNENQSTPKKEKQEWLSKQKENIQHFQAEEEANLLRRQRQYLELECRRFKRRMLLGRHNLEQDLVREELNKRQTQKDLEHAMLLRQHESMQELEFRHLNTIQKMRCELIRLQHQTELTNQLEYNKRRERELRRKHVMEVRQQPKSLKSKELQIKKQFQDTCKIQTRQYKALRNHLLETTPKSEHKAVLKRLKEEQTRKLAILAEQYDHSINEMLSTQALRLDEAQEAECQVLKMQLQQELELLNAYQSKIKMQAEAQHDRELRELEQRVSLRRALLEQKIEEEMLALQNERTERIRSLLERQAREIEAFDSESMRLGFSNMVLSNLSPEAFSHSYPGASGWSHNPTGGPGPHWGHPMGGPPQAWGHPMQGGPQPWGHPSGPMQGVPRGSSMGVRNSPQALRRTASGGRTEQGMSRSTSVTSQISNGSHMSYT
# Protocol: as §1
# [14] = biological target: PRAK (Homo sapiens, UniProt Q8IW41); assay: biochemical; details: read-out: Percentages of residual activities of the kinase reaction
# Chain of PRAK (Q8IW41 whole entry, species assumed): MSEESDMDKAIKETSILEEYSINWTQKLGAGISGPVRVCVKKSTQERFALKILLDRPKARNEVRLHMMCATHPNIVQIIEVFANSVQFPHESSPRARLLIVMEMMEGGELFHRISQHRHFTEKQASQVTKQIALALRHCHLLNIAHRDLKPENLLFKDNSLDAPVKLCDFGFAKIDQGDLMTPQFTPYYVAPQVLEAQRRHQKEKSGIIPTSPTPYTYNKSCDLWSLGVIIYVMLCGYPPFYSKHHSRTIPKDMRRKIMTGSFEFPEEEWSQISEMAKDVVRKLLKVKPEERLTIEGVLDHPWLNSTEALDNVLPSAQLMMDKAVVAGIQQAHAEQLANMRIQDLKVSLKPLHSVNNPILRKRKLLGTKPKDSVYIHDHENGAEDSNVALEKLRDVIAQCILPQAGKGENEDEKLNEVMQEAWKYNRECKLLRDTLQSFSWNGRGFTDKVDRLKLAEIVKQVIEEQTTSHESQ
# Protocol: as §1
# [15] = biological target: CAMK1 (Homo sapiens, UniProt Q14012); assay: biochemical; details: read-out: Percentages of residual activities of the kinase reaction
# Protocol: as §1
# [16] = biological target: PKBa (Homo sapiens, UniProt P31749); assay: biochemical; details: read-out: Percentages of residual activities of the kinase reaction
# Protocol: as §1
# [17] = biological target: PIM2 (Homo sapiens, UniProt Q9P1W9); assay: biochemical; details: read-out: Percentages of residual activities of the kinase reaction
# Chain of PIM2 (Q9P1W9 whole entry, species assumed): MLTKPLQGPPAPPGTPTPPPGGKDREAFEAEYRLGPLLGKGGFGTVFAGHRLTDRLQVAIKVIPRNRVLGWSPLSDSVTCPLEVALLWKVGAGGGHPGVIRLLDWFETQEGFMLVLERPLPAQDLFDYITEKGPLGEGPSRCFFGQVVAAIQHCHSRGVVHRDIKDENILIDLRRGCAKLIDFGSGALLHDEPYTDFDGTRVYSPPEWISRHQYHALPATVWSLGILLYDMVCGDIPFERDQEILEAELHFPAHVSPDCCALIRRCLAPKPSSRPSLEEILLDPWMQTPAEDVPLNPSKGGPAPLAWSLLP
# Protocol: as §1
# [18] = biological target: HER4 (Homo sapiens, UniProt Q15303); assay: biochemical; details: read-out: Percentages of residual activities of the kinase reaction
# Protocol: as §1
# [19] = biological target: RIPK2 (Homo sapiens, UniProt O43353); assay: biochemical; details: read-out: Percentages of residual activities of the kinase reaction
# Protocol: as §1
# [20] = biological target: NEK6 (Homo sapiens, UniProt Q9HC98); assay: biochemical; details: read-out: Percentages of residual activities of the kinase reaction
# Protocol: as §1
# [21] = biological target: TIE2 (Homo sapiens, UniProt Q02763); assay: biochemical; details: read-out: Percentages of residual activities of the kinase reaction
# Protocol: as §1
# [22] = biological target: MARK4 (Homo sapiens, UniProt Q96L34); assay: biochemical; details: read-out: Percentages of residual activities of the kinase reaction
# Protocol: as §1
# [23] = biological target: MEKK1 (Homo sapiens, UniProt Q13233); assay: biochemical; details: read-out: Percentages of residual activities of the kinase reaction
# Protocol: as §1
# [24] = biological target: PIM1 (Homo sapiens, UniProt P11309); assay: biochemical; details: read-out: Percentages of residual activities of the kinase reaction
# Chain of PIM1 (P11309 whole entry, species assumed): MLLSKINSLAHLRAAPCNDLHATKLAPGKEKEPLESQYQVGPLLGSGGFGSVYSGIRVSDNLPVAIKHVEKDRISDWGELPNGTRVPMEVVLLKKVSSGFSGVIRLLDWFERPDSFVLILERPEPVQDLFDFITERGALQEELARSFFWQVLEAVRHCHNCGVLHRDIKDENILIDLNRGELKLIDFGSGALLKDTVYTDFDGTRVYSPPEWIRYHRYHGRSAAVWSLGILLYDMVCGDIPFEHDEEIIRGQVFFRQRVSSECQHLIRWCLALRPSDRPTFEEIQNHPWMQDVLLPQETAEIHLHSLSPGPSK
# Protocol: as §1
# [25] = biological target: PKCa (Homo sapiens, UniProt P17252); assay: biochemical; details: read-out: Percentages of residual activities of the kinase reaction
# Protocol: as §1
# [26] = biological target: DYRK2 (Homo sapiens, UniProt Q92630); assay: biochemical; details: read-out: Percentages of residual activities of the kinase reaction
# Protocol: as §1
# [27] = biological target: IRR (Homo sapiens, UniProt P14616); assay: biochemical; details: read-out: Percentages of residual activities of the kinase reaction
# Protocol: as §1
# [28] = biological target: EF2K (Homo sapiens, UniProt O00418); assay: biochemical; details: read-out: Percentages of residual activities of the kinase reaction
# Protocol: as §1
# [29] = biological target: FGF-R1 (Homo sapiens, UniProt P11362); assay: biochemical; details: read-out: Percentages of residual activities of the kinase reaction
# Chain of FGF-R1 (P11362 22-822, species assumed): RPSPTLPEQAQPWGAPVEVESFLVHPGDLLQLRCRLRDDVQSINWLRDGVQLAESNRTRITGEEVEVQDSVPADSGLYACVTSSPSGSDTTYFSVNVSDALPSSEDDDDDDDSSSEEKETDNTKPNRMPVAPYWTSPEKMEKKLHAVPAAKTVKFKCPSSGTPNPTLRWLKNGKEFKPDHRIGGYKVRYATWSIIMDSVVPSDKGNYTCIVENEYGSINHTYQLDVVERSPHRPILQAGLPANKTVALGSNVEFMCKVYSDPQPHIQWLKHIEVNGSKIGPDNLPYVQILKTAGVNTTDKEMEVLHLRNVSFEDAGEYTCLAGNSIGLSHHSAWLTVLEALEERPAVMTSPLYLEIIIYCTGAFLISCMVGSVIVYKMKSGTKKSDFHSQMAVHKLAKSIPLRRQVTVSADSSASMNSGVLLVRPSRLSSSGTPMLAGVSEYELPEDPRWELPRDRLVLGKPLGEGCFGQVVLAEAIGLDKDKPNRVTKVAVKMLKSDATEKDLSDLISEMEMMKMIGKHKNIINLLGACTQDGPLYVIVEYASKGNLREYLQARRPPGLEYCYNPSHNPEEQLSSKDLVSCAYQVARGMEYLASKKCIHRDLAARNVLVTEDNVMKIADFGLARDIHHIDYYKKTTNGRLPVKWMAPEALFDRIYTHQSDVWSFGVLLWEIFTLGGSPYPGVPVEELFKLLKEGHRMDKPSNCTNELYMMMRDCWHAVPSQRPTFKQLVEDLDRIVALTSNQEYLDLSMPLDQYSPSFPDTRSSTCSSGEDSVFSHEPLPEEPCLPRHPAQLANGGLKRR
# Protocol: as §1
# [30] = biological target: IKKe (Homo sapiens, UniProt Q14164); assay: biochemical; details: read-out: Percentages of residual activities of the kinase reaction
# Chain of IKKe (Q14164 whole entry, species assumed): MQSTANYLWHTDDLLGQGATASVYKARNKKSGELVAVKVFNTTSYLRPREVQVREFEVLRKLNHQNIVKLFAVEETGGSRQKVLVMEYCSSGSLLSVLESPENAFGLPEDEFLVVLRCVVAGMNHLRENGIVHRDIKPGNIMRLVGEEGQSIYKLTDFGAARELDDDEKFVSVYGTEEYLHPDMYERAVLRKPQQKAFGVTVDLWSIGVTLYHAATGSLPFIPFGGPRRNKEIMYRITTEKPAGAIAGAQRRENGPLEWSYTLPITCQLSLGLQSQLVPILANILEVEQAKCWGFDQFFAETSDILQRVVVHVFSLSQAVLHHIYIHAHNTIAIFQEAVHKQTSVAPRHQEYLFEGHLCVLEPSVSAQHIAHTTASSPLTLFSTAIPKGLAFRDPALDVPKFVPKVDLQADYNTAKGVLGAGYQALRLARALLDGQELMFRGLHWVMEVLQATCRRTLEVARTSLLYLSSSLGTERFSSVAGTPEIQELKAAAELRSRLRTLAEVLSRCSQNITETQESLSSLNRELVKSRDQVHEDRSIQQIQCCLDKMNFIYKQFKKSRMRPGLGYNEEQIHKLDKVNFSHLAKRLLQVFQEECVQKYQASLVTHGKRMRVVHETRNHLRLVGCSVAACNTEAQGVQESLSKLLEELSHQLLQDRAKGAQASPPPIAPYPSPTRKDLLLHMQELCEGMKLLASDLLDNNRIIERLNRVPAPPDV
# Protocol: as §1
# [31] = biological target: Lck (Homo sapiens, UniProt P06239); assay: biochemical; details: read-out: Percentages of residual activities of the kinase reaction
# Protocol: as §1
# [32] = biological target: EPH-B4 (Homo sapiens, UniProt P54760); assay: biochemical; details: read-out: Percentages of residual activities of the kinase reaction
# Protocol: as §1
# [33] = biological target: EPH-B1 (Homo sapiens, UniProt P54762); assay: biochemical; details: read-out: Percentages of residual activities of the kinase reaction
# Protocol: as §1
# [34] = biological target: EPH-B3 (Homo sapiens, UniProt P54753); assay: biochemical; details: read-out: Percentages of residual activities of the kinase reaction
# Protocol: as §1
# [35] = biological target: p38a MAPK (Homo sapiens, UniProt Q16539); assay: biochemical; details: read-out: Percentages of residual activities of the kinase reaction
# Protocol: as §1
# [36] = biological target: YES1 (Homo sapiens, UniProt P07947); assay: biochemical; details: read-out: Percentages of residual activities of the kinase reaction
# Protocol: as §1
# [37] = biological target: catalytic subunit of cAMP-dependent protein kinase (PKAc) (Homo sapiens, UniProt P17612); assay: Binding affinity to PKAc; details: towards PKAc
smiles,measurement,setting,value
CN(C)c1ccc2c(c1)Oc1cc(N(C)C)ccc1C21OC(=O)c2cc(C(=O)NCCCC[C@@H](NC(=O)[C@@H](CCCNC(=N)N)NC(=O)[C@@H](CCCNC(=N)N)NC(=O)[C@@H](CCCNC(=N)N)NC(=O)[C@@H](CCCNC(=N)N)NC(=O)[C@@H](CCCNC(=N)N)NC(=O)[C@@H](CCCNC(=N)N)NC(=O)CCCCCNC(=O)[C@@H](CCCNC(=N)N)NC(=O)CCCCCNC(=O)c3ccc(-c4ccnc(N)n4)s3)C(N)=O)ccc21 [ARC-669],Percentages of residual activities of the kinase reaction,[1],72%
same,remaining activity at 1 µM,[2],100%
same,remaining activity at 1 µM,[3],35%
same,remaining activity at 1 µM,[4],45%
same,remaining activity at 1 µM,[5],2%
same,remaining activity at 1 µM,[6],68%
same,remaining activity at 1 µM,[7],85%
same,remaining activity at 1 µM,[8],104%
same,remaining activity at 1 µM,[9],76%
same,remaining activity at 1 µM,[10],94%
same,remaining activity at 1 µM,[11],36%
same,remaining activity at 1 µM,[12],13%
same,remaining activity at 1 µM,[13],94%
same,remaining activity at 1 µM,[14],63%
same,remaining activity at 1 µM,[15],3%
same,remaining activity at 1 µM,[16],1%
same,remaining activity at 1 µM,[17],15%
same,remaining activity at 1 µM,[18],82%
same,remaining activity at 1 µM,[19],47%
same,remaining activity at 1 µM,[20],71%
same,remaining activity at 1 µM,[21],86%
same,remaining activity at 1 µM,[22],86%
same,remaining activity at 1 µM,[23],19%
same,remaining activity at 1 µM,[24],3%
same,remaining activity at 1 µM,[25],15%
same,remaining activity at 1 µM,[26],65%
same,remaining activity at 1 µM,[27],32%
same,remaining activity at 1 µM,[28],43%
same,remaining activity at 1 µM,[29],54%
same,remaining activity at 1 µM,[30],37%
same,remaining activity at 1 µM,[31],11%
same,remaining activity at 1 µM,[32],98%
same,remaining activity at 1 µM,[33],90%
same,remaining activity at 1 µM,[34],75%
same,remaining activity at 1 µM,[35],55%
same,remaining activity at 1 µM,[36],64%
same,Kd,[37],0.1 nM
